{
  "source": "paper PMC11054894",
  "about": "“Sortase-Modified Cholera Toxoids Show Specific Golgi Localization” (Toxins, 2024)",
  "molecules": {"B1": {"name": "cholera toxin B-subunit (natural protein)", "chain": "TPQNITDLCAEYHNTQIYTLNDKIFSYTESLAGKREMAIITFKNGAIFQVEVPGSQHIDSQKKAIERMKDTLRIAYLTEAKVEKLCVWNNKTPHAIAAISMAN", "notes": "also called B5; B5 pentamer"}},
  "experiment_in_all_cases": "SDS-PAGE without boiling",
  "key": {"[1]": {"molecular_target": "cholera toxin B with an N-terminal triglycine extension (UniProt P01556)"}, "[2]": {"molecular_target": "FITC-labeled cholera toxin B (sortase-labeled GGG-CTB) (UniProt P01556)"}, "[3]": {"molecular_target": "the molecule itself"}},
  "data": [
    {"molecule": "cholera toxin B with an N-terminal triglycine extension (from UniProt P01556 22-124) (natural protein)", "values": [
      {"measurement": "stoichiometry N", "setting": "[1]", "value": 5}
    ]},
    {"molecule": "FITC-labeled cholera toxin B (sortase-labeled GGG-CTB) (from UniProt P01556 22-124) (natural protein)", "values": [
      {"measurement": "stoichiometry N", "setting": "[2]", "value": 5}
    ]},
    {"molecule": "B1", "values": [
      {"measurement": "stoichiometry N", "setting": "[3]", "value": 5}
    ]}
  ]
}
